Source: patent CN109750002A

How the values were obtained:
[1] = biological target: 人BTN3A3 (Butyrophilin subfamily 3 member A3), membrane form on cells (BT474-BTN3A3 overexpressing cells) (human) (UniProt O00478); experiment: adhesion assay by flow cytometry on BT474-BTN3A3 cells, with control human IgG; LSECtin-positive ZSG-positive cells / ZSG-positive cells
[2] = biological target: 人BTN3A3 (Butyrophilin subfamily 3 member A3), membrane form on cells (BT474-BTN3A3 overexpressing cells) (human) (UniProt O00478); experiment: adhesion assay by flow cytometry on BT474-BTN3A3 cells, with 5E08 mixed 1:1 (molar) with LSECtin as blocker

UniProt O00478, sequence (O00478 30-584): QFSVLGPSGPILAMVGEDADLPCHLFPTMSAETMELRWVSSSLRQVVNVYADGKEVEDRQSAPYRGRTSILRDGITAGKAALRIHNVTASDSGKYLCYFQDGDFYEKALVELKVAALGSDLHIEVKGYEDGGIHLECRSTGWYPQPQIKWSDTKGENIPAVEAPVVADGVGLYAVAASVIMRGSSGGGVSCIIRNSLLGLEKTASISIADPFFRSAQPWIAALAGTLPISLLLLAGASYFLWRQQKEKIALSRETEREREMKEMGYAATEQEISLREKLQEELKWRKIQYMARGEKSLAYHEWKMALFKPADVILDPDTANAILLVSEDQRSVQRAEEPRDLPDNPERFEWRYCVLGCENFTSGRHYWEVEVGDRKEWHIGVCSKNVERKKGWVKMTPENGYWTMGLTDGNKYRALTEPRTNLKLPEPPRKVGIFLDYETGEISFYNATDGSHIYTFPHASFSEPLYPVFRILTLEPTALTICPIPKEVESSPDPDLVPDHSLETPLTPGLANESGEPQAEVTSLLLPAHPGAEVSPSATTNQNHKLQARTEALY

LSECtin粘附率 [1]: 16.1% | LSECtin粘附率 [2]: 1.4%
B1: LSECtin蛋白 (Liver Sinusoidal Endothelial Cells lectin) (ligand, UniProt Q6UXB4 53-293, looked up)
chain: LSKASTERAALLDGHDLLRTNASKQTAALGALKEEVGDCHSCCSGTQAQLQTTRAELGEAQAKLMEQESALRELRERVTQGLAEAGRGREDVRTELFRALEAVRLQNNSCEPCPTSWLSFEGSCYFFSVPKTTWAAAQDHCADASAHLVIVGGLDEQGFLTRNTRGRGYWLGLRAVRHLGKVQGYQWVDGVSLSFSHWNQGEPNDAWGRENCVMMLHTGLWNDAPCDSEKDGWICEKRHNC
